Laboratory results from the supplement of paper PMC9170038.

Test system: MS2 coat protein
Assay: apparent KD of MS2 coat protein; designed switch direction (-1 OFF switch, 1 ON switch): -1; higher = weaker reporter binding
Procedure, shortened: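 Normalised cluster fluorescence was curve-fitted, and each design's median over clusters is its apparent KD. Before this, SNAP-549-labelled MS2 coat protein was titrated from 0.7 or 1.5 nM, doubling to 3 µM, over RNA switches transcribed on Illumina chips by stalled E. coli RNA polymerase. Titrations had no input, 200 uM small-molecule ligand, or an oligonucleotide input, and steps lasted 0.8–1.5 h (lowest) to 10–20 min (highest).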

[1] = Eterna round: R95, input ligand: FMN 200 uM
[2] = Eterna round: R95, input ligand: microRNA oligo, concentration not stated
[3] = Eterna round: R95, input ligand: none
[4] = input ligand: microRNA oligo, concentration not stated

Row | Sequence | apparent KD of MS2 coat protein [1] [µM] | apparent KD of MS2 coat protein [2] [µM] | apparent KD of MS2 coat protein [3] [µM] | apparent KD of MS2 coat protein (input ligand: FMN 200 uM) [µM] | apparent KD of MS2 coat protein [4] [µM] | apparent KD of MS2 coat protein (input ligand: none) [µM]
1 | GUGAAACAUGAGGAUCACCCAUGUGAGGAUAUGAUUAAGUAAUGAUGAAAGUAUAUAUUCAGAAGGCACAAUGG [Mat - Mod of JL D73] (puzzle: Exclusion 1) | 0.132 | 0.0833 | 0.152 | – | – | –
2 | ACAAGCUUUUUGCUCGGCUACAUGAGGAUCACCCAUGUUGUGUGUUAUUGUUUUUGAUUGUUCGUGCGCAGCAGGUA [JR_SV3TOV1_Sub073] (puzzle: Sensor v3, turn-off variant 1) | 0.071 | 0.0294 | 0.112 | – | – | –
3 | GCGUGGGCCGCAGGAUAUGAGGCCGUGGGUUCACCCAAACACACAUGAGGAUCACCCAUGUGUCAUCAGAAGGGCGAGCCUACU [Sozasora] (Eterna round: R96, puzzle: Exclusion NG 2) | – | – | – | 0.0189 | 0.0175 | 0.0214
4 | GAUUAUGCGAGCUUUAGGGACAUGAGGAUCACCCAUGUUCGUCUUAUUGAUCUAGAUGCACUAACAUACCUAAAUCU [JMF 25] (puzzle: Sensor v3, turn-off variant 1) | 0.0197 | 0.0251 | 0.0201 | – | – | –
5 | GGUAAGCUAGGAUAUGCUUUGGGAAAGCAUUCCUUCGAUAAACUUGAGGAUCACCCAAGUAGAAGGAGCUUCCC [salish99_ex2_r4_017] (Eterna round: R97, puzzle: Exclusion 2) | – | – | – | 0.0112 | – | 0.011
6 | GGAUCGAAUGUGAGGAUAUGCUGGUCCUUGGAUCAGCAGAAGGCACAUGAGGAUCACCCAUGUGAAGACGGUCC [Eli bmx4 4.31] (Eterna round: R97, puzzle: Brourd's mod of Exclusion 4) | – | – | – | 0.201 | – | 0.0414
7 | GCUGCAAGAGGAUAUACAUGAGGAUCACCCAUGUGGGAUCGCGUUCUGGAUCAGGACUGUAGAAGGUUUGUGCG [Eternabot (L1) Solution 63] (Eterna round: R97, puzzle: Exclusion 3) | – | – | – | 0.286 | – | 0.0913
8 | AGAUAUAGAGGAUAUUUGCGGGAACACAUGAGGAUCACCCAUGUCGAAUAGACGCCCUAUAAAGAAGGCUAGACUG [Eternabot (L2) Solution 86] (Eterna round: R97, puzzle: Exclusion 5) | – | – | – | 0.0157 | – | 0.0328
9 | CUAGUCCGAGGAUAUAUUAUGUGAAACAUGAGGAUCACCCAUGUAAUAUGAUGGAUGUAAAUAGAAGGCGGACUAG [Mat - Exclusion 5 - JL mod - D25] (puzzle: Exclusion 5) | 0.0379 | 0.0174 | 0.0361 | – | – | –
10 | AUGUGCUGCUAAGGAUAUGUGAACUGUUUCCGAAUAGAAGGUAGCUAUACAUGAGGAUCACCCAUGUACGUGAACCGAGUAAAA [Eternabot solution 20] (Eterna round: R96, puzzle: Exclusion NG 1) | – | – | – | 0.02 | 0.019 | 0.0246
11 | UCUCGCGGGCAAGGAUAUCCUACGCUGUUCUGGCCCGUGUUUGUUACAUGAGGAUCACCCAUGUGGGAGAAGGUGCACCAGGGC [Design 41] (Eterna round: R96, puzzle: Exclusion NG 2) | – | – | – | 0.062 | 0.0365 | 0.0764
12 | GAUAGAGAGCAGGAUAUCAUAGAAAUGUAUGAAUGAGAAGGGCUCACAUGAGGAUCACCCAUGUGGUCCUAGAU [JL Dibiri mod 19] (Eterna round: R96, puzzle: Exclusion 6) | – | – | – | – | 0.0234 | –
13 | AAAACGGCAGGAUAUACAUGAGGAUCACCCAUGUGAAAUAAAAUAAAAUAAAAUAAAAGUAGAAGGGCCAAAAA [Exclusion 3 #3] (puzzle: Exclusion 3) | 0.0404 | 0.0407 | 0.0586 | – | – | –
14 | AACAGGUCAGGAUAUACAUGAGGAUCACCCAUGUAGACUUCUGGUCUACCUUGACCGUGUAGAAGGGACCUGAA [Exclusion 3 (MOD2 of #98 Marzena11)] (Eterna round: R97, puzzle: Exclusion 3) | – | – | – | 0.0439 | – | 0.0288
15 | UUGUCGGCAGGAUAUACAUGAGGAUCACCCAUGUAAAUUUUUCGUUUAACUUGAAUGUGUAGAAGGGCCAUGUU [Ex3 #71] (Eterna round: R97, puzzle: Exclusion 3) | – | – | – | 0.0353 | – | 0.0245
16 | CAGCUGAAAGUCAGGAUAUCUAGAGCGAUAGCUCUAGAGAAGGGACAUGAGGAUCACCCAUGUGAUCACAGCUG [BmEx4/4-A4] (Eterna round: R97, puzzle: Brourd's mod of Exclusion 4) | – | – | – | 0.408 | – | 1.98
17 | UUUUUCAGGCCAGAUCCUCACAUGAGGAUCACCCAUGUGCUCGUCUGUUUUCGCUCUUUCUUUUUUUUGUUUGUGCU [Level Boss var2-19] (puzzle: Sensor v3, turn-off variant 1) | 0.181 | 0.0275 | 0.312 | – | – | –
18 | CCGAGGUGGCGGUCCUAUGACAUGAGGAUCACCCAUGUACCUCGCCACAAGCUCUUUGCUCAUCUUAUAGUUCUCGG [Onlaor] (Eterna round: R96, puzzle: Sensor v3, turn-off variant 1) | – | – | – | 0.0199 | 0.132 | 0.0245
19 | UCGAUGUAAGGAUAUCGUGCAAGUUUCAAAAGAGGCUUGUGCGAGAAGGUACAUGAGGAUCACCCAUGUAGGUU [Omei Ex4 B7] (Eterna round: R97, puzzle: Exclusion 4) | – | – | – | 0.207 | – | 0.0756
20 | AUUAUAUAGACAGGAUAUUGAUUAUUAUUUUAACAUGAGGAUCACCCAUGUAACCUUAUGUGUAACAAGAAGGGUCAUUUAUUA [Title] (Eterna round: R96, puzzle: Exclusion NG 2) | – | – | – | 0.188 | 0.0996 | 0.106
21 | UCGAGUGGUUAGGAUAUCAUUGGUGCAUAUCAUUGAGAAGGAACUACAUGAGGAUCACCCAUGUGGCAGUGAUA [Abezaso] (Eterna round: R96, puzzle: Exclusion 6) | – | – | – | 0.152 | 0.0264 | 0.0319
22 | UAUUAUCAAGCAAGAUCCUACAUGAGGAUCACCCAUGUGCUCGUCUUAUAAGGUACUGUGACGAAAGUCACGGUACC [Sensor 3, v1 - 73] (puzzle: Sensor v3, turn-off variant 1) | 0.107 | 0.107 | 0.153 | – | – | –
23 | UUAUUAAAUGUAGGAUAUGCAUAUUAUUAUUAUGCAGAAGGACAUGAGGAUCACCCAUGUAUAUUAUUAUUAUAUAUUAUAUAU [Title] (Eterna round: R96, puzzle: Exclusion NG 1) | – | – | – | – | 0.0265 | –
24 | CAAUGAGGAGUGAGGAUAUCGUGUUCGAAAGAACGUGAGAAGGCACAUGAGGAUCACCCAUGUGAUCCUCAUUG [Omei Ex4B A24] (Eterna round: R97, puzzle: Brourd's mod of Exclusion 4) | – | – | – | 0.0982 | – | 0.0533
25 | ACAUGUCAUCGAGGAUAUUGGACACAUGAGGAUCACCCAUGUACUCGGAGGCUCUACCAUGAGUUCGAGAAGGCGAUGUACAUG [Ex NG2 #76] (Eterna round: R96, puzzle: Exclusion NG 2) | – | – | – | 0.651 | 0.316 | 0.365
